Consider nine molecules from patent US20240352438A1, “MEANS AND METHODS FOR DETOXIFYING OCHRATOXIN A” (DSM Austria GmbH, priority 2021, published 2024).

The nature of this assay: OTA detoxification activity assay (specific activity, fluorescence reduction ex/em 390/450 nm). Type of assay: biochemical. The settings on record: SEQ ID NO: 1 = 100%. The procedure: To determine the specific activity of recombinant target polypeptides produced e.g. as described in Example 2 above in units per liter (U/L), ochratoxin A (OTA) detoxification activity assays were performed. One unit is defined as the amount of enzyme necessary for degradation of 1 μmol or OTA in 1 min when using a starting OTA concentration of […].
OTA detoxification activity assays were set up in a final volume of the reaction mixture of […], containing the recombinant enzyme preparation (preferably diluted to yield a volumetric activity of 1-10 mU/L), and 200 ng/mL OTA in 100 mM sodium phosphate buffer.
Specific activities were determined at pH 6.0 and pH 7.5. As soon as all components of the reaction mixture were mixed, OTA degradation was followed at 37° C. on a fluorescence spectrophotometer (BioTek Synergy H1 MFD Multimode microplate reader) by following the reduction in fluorescence at ex/em 390 nm/450 nm. For work performed at pH 6.0 and 7.5, a 100 mM sodium phosphate buffer was used.
For calculation of the specific activity, the initial linear part of the recorded fluorescence reduction curve was used. In addition to the fluorescence-based method described above, OTA degradation was also determined by using the HPLC-MS method as described by Dellafiora et al. 2020, Toxins 12, 258, essentially confirming the fluorescence-based results. Genes encoding either of the indicated SEQ ID NOs are expressed as described herein and the specific activities for the obtained polypeptide preparation are exemplarily shown in Table 8. Analogously, enzymatic activities using either ochratoxin B, C or TA as substrate or can be found.

B1: 228 (protein)
chain: MTTRTRILTAFLSLLAANACAADAAPAAPHTVVLRAARMFDGASGKLVDHPQLTIVGNKIVRIAQGDKAEVPAGAEVVDLGDATLLPGFIDAHVHLSGQSSDNWYGDFFDNMMRFPAEQALYGAYYARITLEAGFTSVRDVGSTDWVALGLRNAIDAGKVPGPRMLVSNYAVGSTGGHADQDPIPPHKLPLAGPLQGVCNGPEECRAAVRYQIKYGANVIKFMPSGGVLDLSDPVDAPELSQDEMNAVIGESHAWGRKVAAHAHGDKAAKMAVAAGVDSIEHGSFIEDDTLRAMKAKNVYLVPTISAIAHVEEKIGTFPPVIAEKGRAAAAHLRQTFRHAVQIGVPIALGTDAGVGAHGSNAREFRYMVENGLTPAQALLAGTANAARLLGTFDRVGTLEAGKLADVVAVPGNPIADITVTERPLFVMKDGVVVRRDAVR
modifications: exemplary polypeptide
Take B1: the “Specific OTA detoxification activities in % compared to the enzyme of SEQ ID NO: 1, pH 6.0” value is on record as 23% and the “Specific OTA detoxification activities in % compared to the enzyme of SEQ ID NO: 1, pH 7.5” value worked out at 19%.

B2: 254 (protein)
chain: MTTRTRILTAFLSLLAANACAADAAPAAPHTVVLRAARMFDGASGKLVDHPQLTIVGNKIVRIAQGDKAEVPAGAEVVDLGDATLLPGFIDAHVHLSGQSSDNWYGDFFKNMMRFPAEQALYGAYYARITLEAGFTSVRDVGSTDWVALGLRNAIDAGKVPGPRMLVSNYAVGSTGGHADQDPIPPHDLPLAGPLQGVCNGPEECRAAVRYQIKYGANVIKFMPSGGVLSLSDPVDAPELSQDEMNAVIGESHAWGRKVAAHAHGDKAAKMAVAAGVDSIEHGSFIEDDTLRAMKAKNVYLVPTISAIAHVEEKIGTFPPVIAEKGRAAAAHLRQTFRHAVQIGVPIALGTDAGVGAHGSNAREFRYMVENGLTPAQALLAGTANAARLLGTFDRVGTLEAGKLADVVAVPGNPIADITVTERPLFVMKDGVVVRRDAVR
modifications: exemplary polypeptide
In the case of B2, the “Specific OTA detoxification activities in % compared to the enzyme of SEQ ID NO: 1, pH 6.0” value was determined as 32% and the “Specific OTA detoxification activities in % compared to the enzyme of SEQ ID NO: 1, pH 7.5” value is given as 15%.

B3: 250 (protein)
chain: MTTRTRILTAFLSLLAANACAADAAPAAPHTVVLRAARMFDGASGKLVDHPQLTIVGNKIVRIAQGDKAEVPAGAEVVDLGDATLLPGFIDAHVHLSGQSSDNWYGDFFDNMMRFPAEQALYGAYYARITLEAGFTSVRDVGSTDWVALGLRNAIDAGKVPGPRMLVSNYAVGSTGGHADQDPIPPHKLPLAGPLQGVCNGPEECRAAVRYQIKYGANVIKFMPSGGVLSLSDPVDAPELSQDEMNAVIGESHAWGRKVAAHAHGDKAAKMAVAAGVDSIEHGSFIEDDTLRAMKAKNVYLVPTISAIAHVEEKIGTFPPVIAEKGRAAAAHLRQTFRHAVQIGVPIALGTDAGVGAKGSNAREFRYMVENGLTPAQALLAGTANAARLLGTFDRVGTLEAGKLADVVAVPGNPIADITVTERPLFVMKDGVVVRRDAVR
modifications: exemplary polypeptide
B3: the “Specific OTA detoxification activities in % compared to the enzyme of SEQ ID NO: 1, pH 6.0” value came out at 17% and the “Specific OTA detoxification activities in % compared to the enzyme of SEQ ID NO: 1, pH 7.5” value is 21%.

B4: 249 (protein)
chain: MTTRTRILTAFLSLLAANACAADAAPAAPHTVVLRAARMFDGASGKLVDHPQLTIVGNKIVRIAQGDKAEVPAGAEVVDLGDATLLPGFIDAHVHLSGQSSDNWYGDFFDNMMRFPAEQALYGAYYARITLEAGFTSVRDVGSTDWVALGLRNAIDAGKVPGPRMLVSNYAVGSTGGHADQDPIPPHKLPLAGPLQGVCNGPEECRAAVRYQIKYGANVIKFMPSGGVLSLSDPVDAPELSQDEMNAVIGESHAWGRKVAAHAHGDKAAKMAVAAGVDSIEHGSFIEDDTLRAMKAKNVYLVPTISAIAHVEEKIGTFPPVIAEKGRAAAAHLRQTFRHAVQIGVPIALGTDAGVGAAGSNAREFRYMVENGLTPAQALLAGTANAARLLGTFDRVGTLEAGKLADVVAVPGNPIADITVTERPLFVMKDGVVVRRDAVR
modifications: exemplary polypeptide
Regarding B4, the “Specific OTA detoxification activities in % compared to the enzyme of SEQ ID NO: 1, pH 6.0” value came out at 21% and the “Specific OTA detoxification activities in % compared to the enzyme of SEQ ID NO: 1, pH 7.5” value came to 26%.

B5: 236 (protein)
chain: MTTRTRILTAFLSLLAANACAADAAPAAPHTVVLRAARMFDGASGKLVDHPQLTIVGNKIVRIAQGDKAEVPAGAEVVDLGDATLLPGFIDAHVHLSGQSSDNWYGDFFDNMMRFPAEQALYGAYYARITLEAGFTSVRDVGSTDWVALGLRNAIDAGKVPGPRMLVSNYAVGSTGGHADQDPIPPHKLPLAGPLQGVCNGPEECRAAVRYQIKYGANVIKFMPSGGVLSLSDPVDAPELSQDEMNAVIGESHAWGRKVAAHAHGDKAAKMAVAAGVDSIEHGDFIEDDTLRAMKAKNVYLVPTISAIAHVEEKIGTFPPVIAEKGRAAAAHLRQTFRHAVQIGVPIALGTDAGVGAHGSNAREFRYMVENGLTPAQALLAGTANAARLLGTFDRVGTLEAGKLADVVAVPGNPIADITVTERPLFVMKDGVVVRRDAVR
modifications: exemplary polypeptide
Turning to B5, the “Specific OTA detoxification activities in % compared to the enzyme of SEQ ID NO: 1, pH 6.0” value is 19% and the “Specific OTA detoxification activities in % compared to the enzyme of SEQ ID NO: 1, pH 7.5” value came out at 15%.

B6: 252 (protein)
chain: MTTRTRILTAFLSLLAANACAADAAPAAPHTVVLRAARMFDGASGKLVDHPQLTIVGNKIVRIAQGDKAEVPAGAEVVDLGDATLLPGFIDAHVHLSGQSSDNWYGDFFDNMMRFPAEQALYGAYYARITLEAGFTSVRDVGSTDWVALGLRNAIDAGKVPGPRMLVSNYAVGSTGGHADQDPIPPHKLPLAGPLQGVCNGPEECRAAVRYQIKYGANVIKFMPSGGVLSLSDPVDAPELSQDEMNAVIGESHAWGRKVAAHAHGDKAAKMAVAAGVDSIEHGSFIEDDTLRAMKAKNVYLVPTISAIAHVEEKIGTFPPVIAEKGRAAAAHLRQTFRHAVQIGVPIALGTDAGVGAHGSEAREFRYMVENGLTPAQALLAGTANAARLLGTFDRVGTLEAGKLADVVAVPGNPIADITVTERPLFVMKDGVVVRRDAVR
modifications: exemplary polypeptide
As for B6, the “Specific OTA detoxification activities in % compared to the enzyme of SEQ ID NO: 1, pH 6.0” value came to 32% and the “Specific OTA detoxification activities in % compared to the enzyme of SEQ ID NO: 1, pH 7.5” value was 13%.

B7: 229 (protein)
chain: MTTRTRILTAFLSLLAANACAADAAPAAPHTVVLRAARMFDGASGKLVDHPQLTIVGNKIVRIAQGDKAEVPAGAEVVDLGDATLLPGFIDAHVHLSGQSSDNWYGDFFDNMMRFPAEQALYGAYYARITLEAGFTSVRDVGSTDWVALGLRNAIDAGKVPGPRMLVSNYAVGSTGGHADQDPIPPHKLPLAGPLQGVCNGPEECRAAVRYQIKYGANVIKFMPSGGVLPLSDPVDAPELSQDEMNAVIGESHAWGRKVAAHAHGDKAAKMAVAAGVDSIEHGSFIEDDTLRAMKAKNVYLVPTISAIAHVEEKIGTFPPVIAEKGRAAAAHLRQTFRHAVQIGVPIALGTDAGVGAHGSNAREFRYMVENGLTPAQALLAGTANAARLLGTFDRVGTLEAGKLADVVAVPGNPIADITVTERPLFVMKDGVVVRRDAVR
modifications: exemplary polypeptide
Consider B7, for which the “Specific OTA detoxification activities in % compared to the enzyme of SEQ ID NO: 1, pH 6.0” value is on record as 21% and the “Specific OTA detoxification activities in % compared to the enzyme of SEQ ID NO: 1, pH 7.5” value is listed as 15%.

B8: 233 (protein)
chain: MTTRTRILTAFLSLLAANACAADAAPAAPHTVVLRAARMFDGASGKLVDHPQLTIVGNKIVRIAQGDKAEVPAGAEVVDLGDATLLPGFIDAHVHLSGQSSDNWYGDFFDNMMRFPAEQALYGAYYARITLEAGFTSVRDVGSTDWVALGLRNAIDAGKVPGPRMLVSNYAVGSTGGHADQDPIPPHKLPLAGPLQGVCNGPEECRAAVRYQIKYGANVIKFMPSGGVLSLSSPVDAPELSQDEMNAVIGESHAWGRKVAAHAHGDKAAKMAVAAGVDSIEHGSFIEDDTLRAMKAKNVYLVPTISAIAHVEEKIGTFPPVIAEKGRAAAAHLRQTFRHAVQIGVPIALGTDAGVGAHGSNAREFRYMVENGLTPAQALLAGTANAARLLGTFDRVGTLEAGKLADVVAVPGNPIADITVTERPLFVMKDGVVVRRDAVR
modifications: exemplary polypeptide
For the molecule B8, the “Specific OTA detoxification activities in % compared to the enzyme of SEQ ID NO: 1, pH 6.0” value came to 11% and the “Specific OTA detoxification activities in % compared to the enzyme of SEQ ID NO: 1, pH 7.5” value was determined as 17%.

B9: 251 (protein)
chain: MTTRTRILTAFLSLLAANACAADAAPAAPHTVVLRAARMFDGASGKLVDHPQLTIVGNKIVRIAQGDKAEVPAGAEVVDLGDATLLPGFIDAHVHLSGQSSDNWYGDFFDNMMRFPAEQALYGAYYARITLEAGFTSVRDVGSTDWVALGLRNAIDAGKVPGPRMLVSNYAVGSTGGHADQDPIPPHKLPLAGPLQGVCNGPEECRAAVRYQIKYGANVIKFMPSGGVLSLSDPVDAPELSQDEMNAVIGESHAWGRKVAAHAHGDKAAKMAVAAGVDSIEHGSFIEDDTLRAMKAKNVYLVPTISAIAHVEEKIGTFPPVIAEKGRAAAAHLRQTFRHAVQIGVPIALGTDAGVGANGSNAREFRYMVENGLTPAQALLAGTANAARLLGTFDRVGTLEAGKLADVVAVPGNPIADITVTERPLFVMKDGVVVRRDAVR
modifications: exemplary polypeptide
With B9, the “Specific OTA detoxification activities in % compared to the enzyme of SEQ ID NO: 1, pH 6.0” value is recorded as 53% and the “Specific OTA detoxification activities in % compared to the enzyme of SEQ ID NO: 1, pH 7.5” value is given as 33%.
